Laboratory results as given in paper PMC3617294, “Novel Tryptophan Metabolism by a Potential Gene Cluster That Is Widely Distributed among Actinomycetes” (The Journal of Biological Chemistry, 2013).

Legend:
[1] = target: SCO7468 (Streptomyces coelicolor, UniProt Q8CJJ9); test: methanol denaturation and reverse-phase HPLC of co-purified flavin; type: binding; details: tightly bound
[2] = substrate: CC(C)=CCc1ccc2[nH]cc(C[C@H](N)C(=O)O)c2c1; test: LC-MS/MS quantification of aldoxime product (5-DMAIAOx); type: biochemical, Streptomyces coelicolor; details: 1 mM NADPH, 20 μM FAD, 100 mM Tris-HCl pH 8.0, 30 °C
[3] = substrate: N[C@@H](Cc1c[nH]c2ccccc12)C(=O)O; test: LC-MS/MS quantification of aldoxime product (IAOx); type: biochemical, Streptomyces coelicolor; details: 1 mM NADPH, 20 μM FAD, 100 mM Tris-HCl pH 8.0, 30 °C
[4] = substrate: N[C@@H](Cc1c[nH]c2ccccc12)C(=O)O; test: purified protein; type: biochemical, Streptomyces coelicolor; details: DMAPP 1 mM fixed, 2 mM MgCl2, 100 mM Tris-HCl pH 8.0, 30 °C
[5] = substrate: CC(C)=CCOP(=O)(O)OP(=O)(O)O; test: purified protein; type: biochemical, Streptomyces coelicolor; details: L-tryptophan 1 mM fixed, 2 mM MgCl2, 100 mM Tris-HCl pH 8.0, 30 °C

With `Cc1cc2nc3c(=O)[nH]c(=O)nc-3n(C[C@H](O)[C@H](O)[C@H](O)COP(=O)(O)OP(=O)(O)OC[C@H]3O[C@@H](n4cnc5c(N)ncnc54)[C@H](O)[C@@H]3O)c2cc1C` [FAD] the “methanol denaturation and reverse-phase HPLC of co-purified flavin” value [1] was “FAD existed in the recombinant SCO7468 protein as a tightly bound form”.

B1: SCO7468 (Streptomyces coelicolor A3(2)) (protein)
chain: MRVCVIGAGLSGLAMGHALKERGISFVCLEKAPDVGGIWRQPGAGERGPGYQSLHLNTARQLTGYADFPMPSDYPLYPRHDQVAAYLRSFAEWAGLLDHVELRTEVLSVRQDSDGSWTVVSRDADGAQSARRFEQVVVASGHHTDPALPDPLPAGADSFAGTILHSLDYRDGGDFAGRRVVVVGLGASAVDIAADLSRHAERTLLSVRRGLHIVPKQVFGMSLDEIAEAPWWNEMPFAERRRWVEQALLVARGRLSDYGLPEPDHPILSSATTLSDEILSRIRHGAVTPKPAIASFESDRVVFTDGSSEAADTVVYCTGFHMTFPFLPPGCPVAADGAVELYRRIVPADRPGLYFVGLVRPAGALTRLVEAQAQWVARLVDGAAALPGTEEMREEISTYLAGIVERYGRTRGASIQVDVSPYLAEFREPLPV
B1 was tested, and the Km [2] was 0.57 ± 0.1 µM, the kcat [2] was “(8.2 ± 0.7) ×10^−3 s^−1” and the Km [3] was “(3.3 ± 0.7) ×10^3 μM”. For the same molecule, the kcat [3] was “(5.2 ± 0.4) ×10^−3 s^−1”.

B2: SCO7467 (Streptomyces coelicolor A3(2)) (protein)
chain: MRAASTGADPQDASTLGSFTGGQLRRLGSVAGLSRADVETYAQVLTDALGPVAQRPLSLAPPTRTFLSDDHTPVEFSLSFRPGAAPAMRVLVEPGCGATSLADNGRAGLEAVRTMARRWHFTTDALDELLDLFLPPAPQGPLALWCALELRPGGVPGVKVYLNPAVGGEERSAATVREALRRLGHHQAFDSLPQGSGYPFLALDLGNWTEPRAKVYLRHDNLTAGRAARLSRTDSGLVPTAVEGFFRTAAGPGSDAGGLDGRPAQSCHSFTDPGAERPSGFTLYIPVRDYVRHDGEALARASTVLHHHGMDASVLHRALAALTERRPEDGVGLIAYLALAGQRDQPPRVTAYLSSEAYTVRPPVVETVRQPLSVG
notes: N-terminal His8 tag (pHIS8), expressed in E. coli BL21(DE3), Ni-NTA purified, 40 kDa, monomer
B2 gave a Km [4] of 80 ± 6 µM, a kcat [4] of 0.40 ± 0.1 s⁻¹ and a Km [5] of 50 ± 2 µM. For the same molecule, the kcat [5] was 0.40 ± 0.1 s⁻¹.
